Values of other authors as cited in publication PMC4283463 (Journal of pharmaceutical sciences, 2014).

With human growth hormone [hGH] as the substance, how does the “decrease in stability on carbamidomethylation of all four Cys residues” value read?
Its value is ~ 37.7 kJ/mol.
